# Like-named read-outs stand apart in the source and are kept apart here.
# Key:
# [1] = molecular target: T1, murine IL12 receptor complex (IL12Rβ1 and IL12Rβ2) (mouse, UniProt Q60837 20-738; P97378 24-874); test: cell-based or functional assay
# [2] = molecular target: T1, murine IL12 receptor complex (IL12Rβ1 …); test: cell-based or functional assay; remark: listed apart in the source
# [3] = molecular target: T1, murine IL12 receptor complex (IL12Rβ1 …); test: cell-based or functional assay; remark: listed apart in the source
# [4] = molecular target: T1, murine IL12 receptor complex (IL12Rβ1 …); test: flow cytometry on activated primary mouse T cells (CD25+ CD8+ CD90.2+), anti-human Fc detection, MFI
# Procedure: Spleens were harvested from C57BL/6 mice and dissociated manually. Splenocytes were stimulated by culturing for 48 hours in RPMI+10% FBS+2 mM L-glutamine/Pen/Strep in the presence of anti-CD3 and anti-CD28 activation beads (Thermo/11456D) at a 1:3 (beads:splenocytes) ratio and in the presence of 30 U/mL human IL-2 (proleukin). […] Cells were washed once before plating 200,000 cells per well in a 96-well plate and staining indicated concentration of test IL12-Fc fusion proteins or variant molecules for 2 hours on ice. Cells were washed twice before staining for the Fc portion using an ahuFC antibody (Jackson Immuno 109-136-170). Data was acquired using a BD LSRFortessa™ X-20 instrument. Data plots represent geometric mean fluorescence intensity (MFI) of the ahuFC signal from CD25+, CD8+CD90.2+ T cells.
# T1 sequence (Q60837 20-738, chain 1 of 2): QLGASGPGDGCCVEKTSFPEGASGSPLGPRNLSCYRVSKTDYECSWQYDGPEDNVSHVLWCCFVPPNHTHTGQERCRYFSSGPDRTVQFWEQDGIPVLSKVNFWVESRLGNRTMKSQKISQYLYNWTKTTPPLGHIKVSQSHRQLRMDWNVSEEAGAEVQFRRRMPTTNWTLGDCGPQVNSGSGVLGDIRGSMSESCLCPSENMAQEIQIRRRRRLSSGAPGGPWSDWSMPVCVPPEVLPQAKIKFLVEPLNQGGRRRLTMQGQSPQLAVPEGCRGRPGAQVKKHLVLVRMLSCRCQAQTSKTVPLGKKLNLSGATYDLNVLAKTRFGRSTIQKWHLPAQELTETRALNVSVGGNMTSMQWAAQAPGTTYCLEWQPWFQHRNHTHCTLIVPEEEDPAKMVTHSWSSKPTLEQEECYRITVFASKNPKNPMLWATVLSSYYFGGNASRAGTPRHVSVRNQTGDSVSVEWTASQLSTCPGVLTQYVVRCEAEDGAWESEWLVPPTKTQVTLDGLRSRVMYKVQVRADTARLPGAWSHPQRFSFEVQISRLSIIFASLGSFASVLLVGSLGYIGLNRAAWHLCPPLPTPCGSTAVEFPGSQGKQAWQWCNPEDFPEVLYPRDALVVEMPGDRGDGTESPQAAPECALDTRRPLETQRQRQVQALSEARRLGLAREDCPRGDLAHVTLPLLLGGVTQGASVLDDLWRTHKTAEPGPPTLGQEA
# T1 sequence (P97378 24-874, chain 2 of 2): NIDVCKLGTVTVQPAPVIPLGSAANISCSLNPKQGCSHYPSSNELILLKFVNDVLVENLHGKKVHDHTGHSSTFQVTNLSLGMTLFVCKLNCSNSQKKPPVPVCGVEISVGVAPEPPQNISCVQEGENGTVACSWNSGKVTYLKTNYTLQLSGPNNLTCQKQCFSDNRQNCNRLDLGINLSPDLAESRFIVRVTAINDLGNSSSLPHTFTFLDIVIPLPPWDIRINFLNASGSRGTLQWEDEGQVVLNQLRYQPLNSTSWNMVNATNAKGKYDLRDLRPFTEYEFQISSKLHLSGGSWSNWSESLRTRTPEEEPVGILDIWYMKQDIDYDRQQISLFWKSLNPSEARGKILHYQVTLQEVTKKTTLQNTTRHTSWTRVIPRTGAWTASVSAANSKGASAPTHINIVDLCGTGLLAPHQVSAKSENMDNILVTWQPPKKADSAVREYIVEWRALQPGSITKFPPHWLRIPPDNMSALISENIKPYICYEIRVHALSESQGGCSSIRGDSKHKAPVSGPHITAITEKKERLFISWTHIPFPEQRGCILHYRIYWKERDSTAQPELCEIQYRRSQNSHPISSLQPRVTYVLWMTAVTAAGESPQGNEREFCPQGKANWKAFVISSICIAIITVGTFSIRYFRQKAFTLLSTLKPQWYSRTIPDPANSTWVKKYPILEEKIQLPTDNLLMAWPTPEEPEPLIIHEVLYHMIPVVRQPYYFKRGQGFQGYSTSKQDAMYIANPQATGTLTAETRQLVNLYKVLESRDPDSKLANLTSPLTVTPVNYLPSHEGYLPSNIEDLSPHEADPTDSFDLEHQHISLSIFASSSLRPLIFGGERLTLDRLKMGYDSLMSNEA
binder,measurement,setting,value
Bivalent: Fc-IL12(p40-p35) (Fc fusion) ESKYGPPCPPCPAPPVAGPSVFLFPPKPKDTLMISRTPEVTCVVVDVSQEDPEVQFNWYVDGVEVHNAKTKPREEQFNSTYRVVSVLTVLHQDWLNGKEYKCKVSNKGLPSSIEKTISKAKGQPREPQVYTLPPSQEEMTKNQVSLTCLVKGFYPSDIAVEWESNGQPENNYKTTPPVLDSDGSFFLYSRLTVDKSRWQEGNVFSCSVMHEALHNHYTQKSLSLSLGKGGGGSGGGGSGGGGSMWELEKDVYVVEVDWTPDAPGETVNLTCDTPEEDDITWTSDQRHGVIGSGKTLTITVKEFLDAGQYTCHKGGETLSHSHLLLHKKENGIWSTEILKNFKNKTFLKCEAPNYSGRFTCSWLVQRNMDLKFNIKSSSSSPDSRAVTCGMASLSAEKVTLDQRDYEKYSVSCQEDVTCPTAEETLPIELALEARQQNKYENYSTSFFIRDIIKPDPPKNLQMKPLKNSQVEVSWEYPDSWSTPHSYFSLKFFVRIQRKKEKMKETEEGCNQKGAFLVEKTSTEVQCKGGNVCVQAQDRYYNSSCSKWACVPCRVRSGGGGSGGGGSGGGGSRVIPVSGPARCLSQSRNLLKTTDDMVKTAREKLKHYSCTAEDIDHEDITRDQTSTLKTCLPLELHKNESCLATRETSSTTRGSCLPPQKTSLMMTLCLGSIYEDLKMYQTEFQAINAALQNHNHQQIILDKGMLVAIDELMQSLNHNGETLRQKPPVGEADPYRVKMKLCILLHAFSTRVVTINRVMGYLSSA,"EC50 (M); STAT3-Luc reporter, CTLL2/STAT3-Luc cells",[1],6.11e-11 M
same,"Fold induction at 20 nM; STAT3-Luc reporter, CTLL2/STAT3-Luc cells",[1],12.8 fold
same,"Max fold induction; STAT3-Luc reporter, CTLL2/STAT3-Luc cells",[1],14.4 fold
same,"EC50 (M); STAT3-Luc reporter, CTLL2/STAT3-Luc cells",[2],1.85e-11 M
same,"Fold induction at 6.25 nM; STAT3-Luc reporter, CTLL2/STAT3-Luc cells",[2],6.73 fold
same,"Max fold induction; STAT3-Luc reporter, CTLL2/STAT3-Luc cells",[2],7.66 fold
same,"EC50 (M); STAT3-Luc reporter, CTLL2/STAT3-Luc cells",[3],9.95e-11 M
same,"Max fold induction; STAT3-Luc reporter, CTLL2/STAT3-Luc cells",[3],12.2 fold
"Fc-p40-p35 x Fc (Fc fusion, hIgG4s(HoleStar) x hIgG4s(Knob)-p40-p35, murine IL12; also called Fc-p40-p35×Fc control; unmasked monovalent control) chain 1: ESKYGPPCPPCPAPPVAGPSVFLFPPKPKDTLMISRTPEVTCVVVDVSQEDPEVQFNWYVDGVEVHNAKTKPREEQFNSTYRVVSVLTVLHQDWLNGKEYKCKVSNKGLPSSIEKTISKAKGQPREPQVYTLPPSQEEMTKNQVSLSCAVKGFYPSDIAVEWESNGQPENNYKTTPPVLDSDGSFFLVSRLTVDKSRWQEGNVFSCSVMHEALHNRFTQKSLSLSPGK chain 2: ESKYGPPCPPCPAPPVAGPSVFLFPPKPKDTLMISRTPEVTCVVVDVSQEDPEVQFNWYVDGVEVHNAKTKPREEQFNSTYRVVSVLTVLHQDWLNGKEYKCKVSNKGLPSSIEKTISKAKGQPREPQVYTLPPSQEEMTKNQVSLWCLVKGFYPSDIAVEWESNGQPENNYKTTPPVLDSDGSFFLYSRLTVDKSRWQEGNVFSCSVMHEALHNHYTQKSLSLSLGKGGGGSGGGGSGGGGSMWELEKDVYVVEVDWTPDAPGETVNLTCDTPEEDDITWTSDQRHGVIGSGKTLTITVKEFLDAGQYTCHKGGETLSHSHLLLHKKENGIWSTEILKNFKNKTFLKCEAPNYSGRFTCSWLVQRNMDLKFNIKSSSSSPDSRAVTCGMASLSAEKVTLDQRDYEKYSVSCQEDVTCPTAEETLPIELALEARQQNKYENYSTSFFIRDIIKPDPPKNLQMKPLKNSQVEVSWEYPDSWSTPHSYFSLKFFVRIQRKKEKMKETEEGCNQKGAFLVEKTSTEVQCKGGNVCVQAQDRYYNSSCSKWACVPCRVRSGGGGSGGGGSGGGGSRVIPVSGPARCLSQSRNLLKTTDDMVKTAREKLKHYSCTAEDIDHEDITRDQTSTLKTCLPLELHKNESCLATRETSSTTRGSCLPPQKTSLMMTLCLGSIYEDLKMYQTEFQAINAALQNHNHQQIILDKGMLVAIDELMQSLNHNGETLRQKPPVGEADPYRVKMKLCILLHAFSTRVVTINRVMGYLSSA",binding result,[4],binds
"Fc-p40-p35 x Fc-IL12Rβ1(D1) (Fc fusion, Receptor-masked monovalent murine IL12; also called hIgG4s(HoleStar)-mIL12Rb1(D1) x hIgG4s(Knob)-mIL12p40-p35) chain 1: ESKYGPPCPPCPAPPVAGPSVFLFPPKPKDTLMISRTPEVTCVVVDVSQEDPEVQFNWYVDGVEVHNAKTKPREEQFNSTYRVVSVLTVLHQDWLNGKEYKCKVSNKGLPSSIEKTISKAKGQPREPQVYTLPPSQEEMTKNQVSLSCAVKGFYPSDIAVEWESNGQPENNYKTTPPVLDSDGSFFLVSRLTVDKSRWQEGNVFSCSVMHEALHNRFTQKSLSLSPGKGGGGSGGGGSGGGGSQLGASGPGDGCCVEKTSFPEGASGSPLGPRNLSCYRVSKTDYECSWQYDGPEDNVSHVLWCCFVPPNHTHTGQERCRYFSSGPDRTVQFWEQDGIPVLSKVNFWVESRLGNRTMKSQKISQYLYNWTKTTPPL chain 2: ESKYGPPCPPCPAPPVAGPSVFLFPPKPKDTLMISRTPEVTCVVVDVSQEDPEVQFNWYVDGVEVHNAKTKPREEQFNSTYRVVSVLTVLHQDWLNGKEYKCKVSNKGLPSSIEKTISKAKGQPREPQVYTLPPSQEEMTKNQVSLWCLVKGFYPSDIAVEWESNGQPENNYKTTPPVLDSDGSFFLYSRLTVDKSRWQEGNVFSCSVMHEALHNHYTQKSLSLSLGKGGGGSGGGGSGGGGSMWELEKDVYVVEVDWTPDAPGETVNLTCDTPEEDDITWTSDQRHGVIGSGKTLTITVKEFLDAGQYTCHKGGETLSHSHLLLHKKENGIWSTEILKNFKNKTFLKCEAPNYSGRFTCSWLVQRNMDLKFNIKSSSSSPDSRAVTCGMASLSAEKVTLDQRDYEKYSVSCQEDVTCPTAEETLPIELALEARQQNKYENYSTSFFIRDIIKPDPPKNLQMKPLKNSQVEVSWEYPDSWSTPHSYFSLKFFVRIQRKKEKMKETEEGCNQKGAFLVEKTSTEVQCKGGNVCVQAQDRYYNSSCSKWACVPCRVRSGGGGSGGGGSGGGGSRVIPVSGPARCLSQSRNLLKTTDDMVKTAREKLKHYSCTAEDIDHEDITRDQTSTLKTCLPLELHKNESCLATRETSSTTRGSCLPPQKTSLMMTLCLGSIYEDLKMYQTEFQAINAALQNHNHQQIILDKGMLVAIDELMQSLNHNGETLRQKPPVGEADPYRVKMKLCILLHAFSTRVVTINRVMGYLSSA",binding result,[4],binds
"Fc-p40-p35 x Fc-IL12Rβ2(D1) (Fc fusion, Receptor-masked monovalent murine IL12; also called hIgG4s(HoleStar)-mIL12Rb2(D1) x hIgG4s(Knob)-mIL12p40-p35) chain 1: ESKYGPPCPPCPAPPVAGPSVFLFPPKPKDTLMISRTPEVTCVVVDVSQEDPEVQFNWYVDGVEVHNAKTKPREEQFNSTYRVVSVLTVLHQDWLNGKEYKCKVSNKGLPSSIEKTISKAKGQPREPQVYTLPPSQEEMTKNQVSLSCAVKGFYPSDIAVEWESNGQPENNYKTTPPVLDSDGSFFLVSRLTVDKSRWQEGNVFSCSVMHEALHNRFTQKSLSLSPGKGGGGSGGGGSGGGGSNIDVCKLGTVTVQPAPVIPLGSAANISCSLNPKQGCSHYPSSNELILLKFVNDVLVENLHGKKVHDHTGHSSTFQVTNLSLGMTLFVCKLNCSNSQKKPPVPVCGVEISVGV chain 2: ESKYGPPCPPCPAPPVAGPSVFLFPPKPKDTLMISRTPEVTCVVVDVSQEDPEVQFNWYVDGVEVHNAKTKPREEQFNSTYRVVSVLTVLHQDWLNGKEYKCKVSNKGLPSSIEKTISKAKGQPREPQVYTLPPSQEEMTKNQVSLWCLVKGFYPSDIAVEWESNGQPENNYKTTPPVLDSDGSFFLYSRLTVDKSRWQEGNVFSCSVMHEALHNHYTQKSLSLSLGKGGGGSGGGGSGGGGSMWELEKDVYVVEVDWTPDAPGETVNLTCDTPEEDDITWTSDQRHGVIGSGKTLTITVKEFLDAGQYTCHKGGETLSHSHLLLHKKENGIWSTEILKNFKNKTFLKCEAPNYSGRFTCSWLVQRNMDLKFNIKSSSSSPDSRAVTCGMASLSAEKVTLDQRDYEKYSVSCQEDVTCPTAEETLPIELALEARQQNKYENYSTSFFIRDIIKPDPPKNLQMKPLKNSQVEVSWEYPDSWSTPHSYFSLKFFVRIQRKKEKMKETEEGCNQKGAFLVEKTSTEVQCKGGNVCVQAQDRYYNSSCSKWACVPCRVRSGGGGSGGGGSGGGGSRVIPVSGPARCLSQSRNLLKTTDDMVKTAREKLKHYSCTAEDIDHEDITRDQTSTLKTCLPLELHKNESCLATRETSSTTRGSCLPPQKTSLMMTLCLGSIYEDLKMYQTEFQAINAALQNHNHQQIILDKGMLVAIDELMQSLNHNGETLRQKPPVGEADPYRVKMKLCILLHAFSTRVVTINRVMGYLSSA",binding result,[4],binds
"Fc-IL12Rβ1(D1)-p40-p35 x Fc (Fc fusion, Receptor-masked monovalent murine IL12; also called Fc x Fc-mIL12Rb1(D1)-mIL12p40-p35) chain 1: ESKYGPPCPPCPAPPVAGPSVFLFPPKPKDTLMISRTPEVTCVVVDVSQEDPEVQFNWYVDGVEVHNAKTKPREEQFNSTYRVVSVLTVLHQDWLNGKEYKCKVSNKGLPSSIEKTISKAKGQPREPQVYTLPPSQEEMTKNQVSLSCAVKGFYPSDIAVEWESNGQPENNYKTTPPVLDSDGSFFLVSRLTVDKSRWQEGNVFSCSVMHEALHNRFTQKSLSLSPGK chain 2: ESKYGPPCPPCPAPPVAGPSVFLFPPKPKDTLMISRTPEVTCVVVDVSQEDPEVQFNWYVDGVEVHNAKTKPREEQFNSTYRVVSVLTVLHQDWLNGKEYKCKVSNKGLPSSIEKTISKAKGQPREPQVYTLPPSQEEMTKNQVSLWCLVKGFYPSDIAVEWESNGQPENNYKTTPPVLDSDGSFFLYSRLTVDKSRWQEGNVFSCSVMHEALHNHYTQKSLSLSLGKGGGGSGGGGSGGGGSQLGASGPGDGCCVEKTSFPEGASGSPLGPRNLSCYRVSKTDYECSWQYDGPEDNVSHVLWCCFVPPNHTHTGQERCRYFSSGPDRTVQFWEQDGIPVLSKVNFWVESRLGNRTMKSQKISQYLYNWTKTTPPLGGGGSGGGGSGGGGSMWELEKDVYVVEVDWTPDAPGETVNLTCDTPEEDDITWTSDQRHGVIGSGKTLTITVKEFLDAGQYTCHKGGETLSHSHLLLHKKENGIWSTEILKNFKNKTFLKCEAPNYSGRFTCSWLVQRNMDLKFNIKSSSSSPDSRAVTCGMASLSAEKVTLDQRDYEKYSVSCQEDVTCPTAEETLPIELALEARQQNKYENYSTSFFIRDIIKPDPPKNLQMKPLKNSQVEVSWEYPDSWSTPHSYFSLKFFVRIQRKKEKMKETEEGCNQKGAFLVEKTSTEVQCKGGNVCVQAQDRYYNSSCSKWACVPCRVRSGGGGSGGGGSGGGGSRVIPVSGPARCLSQSRNLLKTTDDMVKTAREKLKHYSCTAEDIDHEDITRDQTSTLKTCLPLELHKNESCLATRETSSTTRGSCLPPQKTSLMMTLCLGSIYEDLKMYQTEFQAINAALQNHNHQQIILDKGMLVAIDELMQSLNHNGETLRQKPPVGEADPYRVKMKLCILLHAFSTRVVTINRVMGYLSSA",binding result,[4],binds

# — patent US20230051304A1 (Regeneron, published 2023)
